Source: publication PMC10035768

Molecular target: human Tau441 (2N4R), recombinant, phosphorylated in vitro by PKA (human) (UniProt P10636)
Test: cross-linking + other: mass photometry; BS3 amine-amine crosslinking of purified 4R tau (tau441, with or without PKA phosphorylation) with purified recombinant 14-3-3 β, 20-fold molar excess, 1× PBS pH 8.0, 30 min room temperature; mass photometry in DPBS at room temperature

Chain of human Tau441 (2N4R), recombinant, phosphorylated in vitro by PKA (human) (P10636 other isoform, or with tags, fused parts or gaps): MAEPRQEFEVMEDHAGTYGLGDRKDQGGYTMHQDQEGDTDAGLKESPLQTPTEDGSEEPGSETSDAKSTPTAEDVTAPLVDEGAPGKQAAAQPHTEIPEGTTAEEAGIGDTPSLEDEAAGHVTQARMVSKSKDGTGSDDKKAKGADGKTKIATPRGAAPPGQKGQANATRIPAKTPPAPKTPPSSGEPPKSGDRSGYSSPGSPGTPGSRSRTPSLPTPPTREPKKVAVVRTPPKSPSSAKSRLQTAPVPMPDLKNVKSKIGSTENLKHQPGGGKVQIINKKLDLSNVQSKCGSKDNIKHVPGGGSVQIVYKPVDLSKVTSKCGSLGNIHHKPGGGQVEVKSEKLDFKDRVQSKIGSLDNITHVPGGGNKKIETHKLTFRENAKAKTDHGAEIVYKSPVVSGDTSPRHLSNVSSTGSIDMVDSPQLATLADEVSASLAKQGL

“purified recombinant 14-3-3 β (from UniProt P31946 1-246) (natural protein)” was tested, and the stoichiometry N (14-3-3-β per tau) was 2.
